Data: paper doi:10.1101/781070 (bioRxiv, 2019)

Target: the molecule itself
Assay: crystal structure

B1: Drosophila melanogaster Noppera-bo (DmNobo), wild type (enzyme)
chain: MSQPKPILYYDERSPPVRSCLMLIKLLDIDVELRFVNLFKGEQFQKDFLALNPQHSVPTLVHGDLVLTDSHAILIHLAEKFDEGGSLWPQEHAERMKVLNLLLFECSFLFRRDSDFMSATVRQGFANVDVAHHERKLTEAYIIMERYLENSDFMAGPQLTLADLSIVTTLSTVNLMFPLSQFPRLRRWFTAMQQLDAYEANCSGLEKLRQTMESVGSFQFPSSSAVVTEKVE
stoichiometry N: 2
